PMC8216847

Biological target: SARS-CoV-1 S-2P (SARS-CoV-1)

CV3-25 (antibody)
IC50 of neutralisation of SARS-CoV-1 pseudovirus: 2.1 µg/mL
